Experiment [1] concerns the target T1, recombinant human ROBO4 extracellular region polypeptide rROBO4-ECD (human, UniProt Q8WZ75 28-461).
T1 construct: Expressed from pEF6/V5-His-TOPO in FreeStyle 293-F cells; also called human ROBO4-ECD
T1 sequence: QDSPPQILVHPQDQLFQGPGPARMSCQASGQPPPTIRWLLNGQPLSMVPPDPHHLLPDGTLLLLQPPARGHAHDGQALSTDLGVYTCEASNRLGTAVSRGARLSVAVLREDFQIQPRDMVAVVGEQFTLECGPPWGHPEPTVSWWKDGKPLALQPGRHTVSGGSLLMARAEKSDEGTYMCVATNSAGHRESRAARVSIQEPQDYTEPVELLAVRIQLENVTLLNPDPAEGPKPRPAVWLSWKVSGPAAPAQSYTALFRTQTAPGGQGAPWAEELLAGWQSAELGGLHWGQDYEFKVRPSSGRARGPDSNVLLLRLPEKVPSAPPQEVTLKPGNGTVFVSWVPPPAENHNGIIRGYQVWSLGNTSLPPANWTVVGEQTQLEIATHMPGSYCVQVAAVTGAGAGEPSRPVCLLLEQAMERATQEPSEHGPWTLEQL
Kind of experiment: SPR (Biacore 3000), antibody captured via anti-human IgG on CM5, rROBO4-ECD as analyte, 1:1 model. The method, then:
The dissociation constant between each antibody and rROBO4-ECD was determined with the antibody immobilized as a ligand and the antigen as an analyte using Biacore 3000 (manufactured by GE Healthcare Bio-Sciences Corp.). Approximately 80 RU of the antibody was bound via an anti-human IgG antibody (manufactured by GE Healthcare Bio-Sciences Corp.) immobilized on a sensor chip CM5 (manufactured by GE Healthcare Bio-Sciences Corp.) by an amine coupling method. The running buffer used was PBS containing 0.05% Surfactant P20. Dilution series solutions (0.1-200 nM) of the antigen were added at a flow rate of 30 μL/min. for 300 seconds onto the antibody-bound chip. Subsequently, a dissociation phase was monitored for 300 seconds. 3 M MgCl₂ was added thereto as a regeneration solution at a flow rate of 10 μL/min. for 30 seconds. Data was analyzed using the 1:1 binding model of analysis software (BIAevaluation Software, version 4.1) to calculate an association rate constant kon, a dissociation rate constant koff, and a dissociation constant (KD; KD=koff/kon).
On the technique in general: SPR reads the build-up and loss of mass on a sensor chip optically.

Experiment [2] has as its target N-terminal FLAG-tagged human ROBO1 (pCI-FLAG-hROBO1-transfected HEK293 cells) (human, UniProt Q9Y6N7 58-1651). Kind of experiment: flow cytometry (FC500), HEK293 cells transfected with pCI-FLAG-hROBO1, FITC goat anti-human IgG Fc; control histogram IgG (human IgG). For orientation: Flow cytometry measures light scatter and fluorescence of single cells or particles in a stream.

Experiment [3] has as its target T2, human ROBO3 (pCI-hROBO3-transfected HEK293 cells) (human, UniProt Q96MS0 21-1386).
T2 sequence: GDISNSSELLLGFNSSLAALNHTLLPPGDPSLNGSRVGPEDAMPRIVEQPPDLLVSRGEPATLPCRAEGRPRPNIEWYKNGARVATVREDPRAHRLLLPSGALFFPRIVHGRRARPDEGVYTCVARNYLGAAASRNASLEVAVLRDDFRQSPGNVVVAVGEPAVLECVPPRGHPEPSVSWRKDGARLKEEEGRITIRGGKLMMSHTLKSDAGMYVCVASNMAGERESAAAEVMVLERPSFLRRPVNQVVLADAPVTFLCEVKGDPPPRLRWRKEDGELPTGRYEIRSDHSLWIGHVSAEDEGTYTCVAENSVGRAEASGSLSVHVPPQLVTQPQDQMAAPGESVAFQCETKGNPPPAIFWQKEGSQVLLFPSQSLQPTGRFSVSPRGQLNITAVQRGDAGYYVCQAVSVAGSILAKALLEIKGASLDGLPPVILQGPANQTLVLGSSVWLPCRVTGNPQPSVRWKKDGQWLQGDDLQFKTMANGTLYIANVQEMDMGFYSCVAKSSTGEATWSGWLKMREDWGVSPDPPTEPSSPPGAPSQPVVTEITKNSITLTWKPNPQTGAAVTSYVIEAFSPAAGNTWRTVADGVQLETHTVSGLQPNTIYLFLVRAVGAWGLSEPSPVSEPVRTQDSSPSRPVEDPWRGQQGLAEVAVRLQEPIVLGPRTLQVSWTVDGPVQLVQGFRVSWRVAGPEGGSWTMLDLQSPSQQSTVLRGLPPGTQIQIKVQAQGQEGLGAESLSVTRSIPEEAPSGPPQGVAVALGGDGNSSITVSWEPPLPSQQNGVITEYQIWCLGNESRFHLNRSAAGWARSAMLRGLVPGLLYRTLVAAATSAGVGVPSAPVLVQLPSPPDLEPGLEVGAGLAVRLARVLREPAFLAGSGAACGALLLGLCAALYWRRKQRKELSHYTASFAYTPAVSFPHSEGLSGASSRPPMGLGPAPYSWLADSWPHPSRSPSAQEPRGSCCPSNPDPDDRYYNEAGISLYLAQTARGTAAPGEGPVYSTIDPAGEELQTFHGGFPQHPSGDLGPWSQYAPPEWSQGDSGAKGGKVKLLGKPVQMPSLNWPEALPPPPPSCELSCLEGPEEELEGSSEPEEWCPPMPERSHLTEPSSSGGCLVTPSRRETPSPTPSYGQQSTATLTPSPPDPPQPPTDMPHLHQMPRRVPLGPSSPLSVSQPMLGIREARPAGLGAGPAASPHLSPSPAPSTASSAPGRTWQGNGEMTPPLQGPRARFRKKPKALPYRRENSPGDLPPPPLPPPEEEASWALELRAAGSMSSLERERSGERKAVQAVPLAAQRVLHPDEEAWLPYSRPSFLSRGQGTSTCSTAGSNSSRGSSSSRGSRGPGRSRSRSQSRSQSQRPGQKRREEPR
Kind of experiment: flow cytometry (FC500), HEK293 cells transfected with pCI-hROBO3, FITC goat anti-human IgG Fc; control histogram IgG (human IgG).

The Kd is a measure of binding affinity in units of concentration.

Sequence of N-terminal FLAG-tagged human ROBO1 (pCI-FLAG-hROBO1-transfected HEK293 cells) (Q9Y6N7 other isoform, or with tags, fused parts or gaps): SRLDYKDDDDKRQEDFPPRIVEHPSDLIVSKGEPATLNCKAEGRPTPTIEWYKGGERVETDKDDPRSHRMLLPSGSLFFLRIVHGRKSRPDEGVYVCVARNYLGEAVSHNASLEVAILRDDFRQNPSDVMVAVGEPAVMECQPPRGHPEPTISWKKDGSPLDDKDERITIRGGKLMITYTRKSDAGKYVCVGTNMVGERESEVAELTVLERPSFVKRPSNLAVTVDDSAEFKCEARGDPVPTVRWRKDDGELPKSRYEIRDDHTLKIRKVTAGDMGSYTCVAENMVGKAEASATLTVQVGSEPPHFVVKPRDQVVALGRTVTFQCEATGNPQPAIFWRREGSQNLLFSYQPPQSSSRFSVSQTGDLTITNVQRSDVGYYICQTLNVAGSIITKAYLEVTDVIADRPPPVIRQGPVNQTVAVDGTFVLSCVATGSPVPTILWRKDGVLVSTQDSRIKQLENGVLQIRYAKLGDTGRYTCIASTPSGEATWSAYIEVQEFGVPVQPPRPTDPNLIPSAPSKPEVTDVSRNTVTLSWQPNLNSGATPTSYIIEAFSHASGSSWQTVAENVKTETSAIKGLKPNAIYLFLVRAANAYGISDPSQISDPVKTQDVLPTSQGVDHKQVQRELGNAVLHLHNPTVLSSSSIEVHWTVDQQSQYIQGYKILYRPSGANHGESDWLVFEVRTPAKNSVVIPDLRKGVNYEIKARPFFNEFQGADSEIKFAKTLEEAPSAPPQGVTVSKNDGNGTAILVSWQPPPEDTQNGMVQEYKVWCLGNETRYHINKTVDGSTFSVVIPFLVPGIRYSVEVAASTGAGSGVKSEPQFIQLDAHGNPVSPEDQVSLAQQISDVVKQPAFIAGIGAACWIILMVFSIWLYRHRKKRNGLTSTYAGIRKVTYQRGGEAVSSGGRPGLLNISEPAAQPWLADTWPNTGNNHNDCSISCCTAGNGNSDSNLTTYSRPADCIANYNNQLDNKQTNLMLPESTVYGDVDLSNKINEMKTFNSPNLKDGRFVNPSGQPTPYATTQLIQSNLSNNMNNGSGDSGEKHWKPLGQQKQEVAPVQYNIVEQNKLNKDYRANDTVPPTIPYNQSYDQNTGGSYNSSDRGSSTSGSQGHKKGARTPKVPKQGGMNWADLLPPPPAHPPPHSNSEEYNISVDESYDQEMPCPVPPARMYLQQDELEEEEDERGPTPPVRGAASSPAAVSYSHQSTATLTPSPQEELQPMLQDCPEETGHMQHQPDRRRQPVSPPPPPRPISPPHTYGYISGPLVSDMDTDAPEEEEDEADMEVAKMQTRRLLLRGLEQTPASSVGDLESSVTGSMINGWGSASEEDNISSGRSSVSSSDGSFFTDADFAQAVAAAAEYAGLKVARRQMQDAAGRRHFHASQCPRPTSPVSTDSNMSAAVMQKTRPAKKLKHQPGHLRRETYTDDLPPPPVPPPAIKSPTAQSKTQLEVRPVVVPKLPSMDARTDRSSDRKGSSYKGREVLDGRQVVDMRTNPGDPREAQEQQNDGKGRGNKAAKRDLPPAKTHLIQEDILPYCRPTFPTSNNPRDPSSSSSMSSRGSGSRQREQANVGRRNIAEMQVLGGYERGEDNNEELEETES

B1: humanized MAb1 antibody H-1143 (antibody, human IgG2, kappa, V domains shown)
VH: EVQLVESGGGLVQPGGSLRLSCAASGFTFSTYAMSWVRQAPGKGLEWVATISQGGTYTYYPDSVKGRFTISRDNAKNTLYLQMNSLRAEDTAVYYCARLIYYDYLDYWGQGTLVTVSS
VL: DIVMTQSPLSLPVTLGEPASISCRSSQSLENENKNLYLNWYLQKPGQSPQLLIYRVSNRFSGVPDRFSGSGSGTDFTLKISRVEAEDVGVYYCLQVTHVPWTFGPGTKVDIKR
notes: Human IgG2 / kappa constant regions; also called hMAb1-H2-type heavy chain + hMAb1-L2-type light chain
With B1, the Kd in experiment [1] was 3.5 nM. For the same molecule, the binding result in experiment [2] and in experiment [3] was “no binding (tested: 10 µg/mL)” throughout.

B2: humanized MAb1 antibody H-2143 (antibody, human IgG2, kappa, V domains shown)
VH: EVQLVESGGGLVQPGGSLRLSCAASGFTFSTYAMSWVRQAPGKRLEWVATISQGGTYTYYPDSVKGRFTISRDNAKNTLYLQMNSLRAEDTAVYYCARLIYYDYLDYWGQGTLVTVSS
VL: DIVMTQSPLSLPVTLGEPASISCRSSQSLENENKNLYLNWYLQKPGQSPQLLIYRVSNRFSGVPDRFSGSGSGTDFTLKISRVEAEDVGVYYCLQVTHVPWTFGPGTKVDIKR
notes: Human IgG2 / kappa constant regions; also called hMAb1-H4-type heavy chain + hMAb1-L2-type light chain
With B2, the Kd in experiment [1] is 1.7 nM. For the same molecule, the binding result in experiment [2] and in experiment [3] was “no binding (tested: 10 µg/mL)” in each case.

B3: humanized MAb1 antibody H-1140 (antibody, human IgG2, kappa, V domains shown)
VH: EVQLVESGGGLVQPGGSLRLSCAASGFTFSTYAMSWVRQAPGKGLEWVATISQGGTYTYYPDSVKGRFTISRDNAKNTLYLQMNSLRAEDTAVYYCARLIYYDYLDYWGQGTLVTVSS
VL: DIVMTQSPLSLPVTLGEPASISCRSSQSLENSNGNTYLNWYLQKPGQSPQLLIYRVSNRFSGVPDRFSGSGSGTDFTLKISRVEAEDVGVYYCLQVTHVPWTFGPGTKVDIKR
notes: Human IgG2 / kappa constant regions; also called hMAb1-H2-type heavy chain + hMAb1-L1-type light chain
Regarding B3, in experiment [1], the Kd stood at 3.9 nM.

B4: humanized MAb1 antibody H-2140 (antibody, human IgG2, kappa, V domains shown)
VH: EVQLVESGGGLVQPGGSLRLSCAASGFTFSTYAMSWVRQAPGKRLEWVATISQGGTYTYYPDSVKGRFTISRDNAKNTLYLQMNSLRAEDTAVYYCARLIYYDYLDYWGQGTLVTVSS
VL: DIVMTQSPLSLPVTLGEPASISCRSSQSLENSNGNTYLNWYLQKPGQSPQLLIYRVSNRFSGVPDRFSGSGSGTDFTLKISRVEAEDVGVYYCLQVTHVPWTFGPGTKVDIKR
notes: Human IgG2 / kappa constant regions; also called hMAb1-H4-type heavy chain + hMAb1-L1-type light chain
B4: the Kd in experiment [1] was determined as 1.8 nM. Moreover, the binding result in experiment [2] and in experiment [3] was “no binding (tested: 10 µg/mL)” each time.
